In test [1] the target is humanized variant of IPN002 (hu-IPN002). In words: competition ELISA; competitor: biotin-Tau 15-44 on hu-IPN002.
Test [2] addresses 383 amino acid recombinant tau (UniProt P10636). In words: peptide binding ELISA (A450), hu-IPN002 titrated; table under the curves. Background: An ELISA detects its analyte on a solid surface through an enzyme-linked reagent.
Test [3] shares this target. In words: ELISA binding assay, A450.
Test [4] has the same target. Kind of test: ELISA, serially diluted hu-IPN002 with biotin-rTau383.
For test [5] the target is unchanged. Kind of test: solution phase ELISA, biotin-rTau383, A450.
Test [6] has the same target. In words: solid phase ELISA, biotin-rTau383, A450.
For test [7] the target is unchanged. Kind of test: ELISA, solid phase, biotin-rTau383.
Test [8] deals with biotin-phospho Tau 15-24. Kind of test: ELISA, serially diluted hu-IPN002 with biotin-Tau 15-24 PHOSPHO.
For test [9], the target named is 383 amino acid recombinant tau (UniProt P10636). Kind of test: ELISA, solution phase, biotin-rTau383.
Test [10] concerns the target biotin-Tau 15-24. Kind of test: ELISA, serially diluted hu-IPN002 with biotin-Tau 15-24.
Test [11] deals with 383 amino acid recombinant tau (UniProt P10636). Kind of test: peptide binding ELISA (A450), hu-IPN002 titrated.

Sequence of 383 amino acid recombinant tau (P10636 other isoform, or with tags, fused parts or gaps limits assumed): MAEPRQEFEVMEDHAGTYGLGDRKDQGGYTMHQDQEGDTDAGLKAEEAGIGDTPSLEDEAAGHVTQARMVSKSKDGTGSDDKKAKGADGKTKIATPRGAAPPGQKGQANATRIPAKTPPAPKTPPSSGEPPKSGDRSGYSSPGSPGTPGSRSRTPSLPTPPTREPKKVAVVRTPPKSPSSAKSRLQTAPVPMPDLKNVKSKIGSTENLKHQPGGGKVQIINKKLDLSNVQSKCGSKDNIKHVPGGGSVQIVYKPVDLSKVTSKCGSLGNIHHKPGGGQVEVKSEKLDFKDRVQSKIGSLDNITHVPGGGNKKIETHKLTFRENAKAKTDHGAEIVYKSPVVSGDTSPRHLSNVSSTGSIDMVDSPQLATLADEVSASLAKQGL
Sequence of Peptide 2 (Tau amino acids 15-44) (peptide): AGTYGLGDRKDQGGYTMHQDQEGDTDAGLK

In test [1], Peptide 2 (Tau amino acids 15-44) displayed an IC50 (read off the curve) of 100 nM.
On to “humanized variant of IPN002 (hu-IPN002) (antibody)”, for which the Kd (in general, a measure of binding affinity in units of concentration) in [2] was 0.288 nM; in [3] it was 0.288 nM; in [4] it was 0.283 nM; in test [7], 0.107 nM; in test [8] it was 0.768 nM; in test [9], 0.114 nM. The substance also returned a dissociation constant Kd in [10] of 0.754 nM. Moreover, the concentration giving a half-maximal response (EC50 (read off the curve)) – broadly, the concentration needed to bring the measured effect to its halfway point – worked out at 0.3 nM in [3], 0.1 nM in [5], 0.1 nM in test [6] and 0.3 nM in test [11].

The values above are taken from patent US20160122421A1.
